# B1: Campylobacter jejuni DapE (N-succinyl-L,L-diaminopimelic acid desuccinylase) (enzyme, UniProt Q0P9K4 1-365, looked up)
# chain: MNAKEFLIELLKFKSVTPNDDGALNFIAMELSDFEAFFIEKEGIKNLLLTKKFKDEGEHLAFGGHVDVVPAGEGWSNNAFAPVEKEGFIYARGAQDMKSGVAAFVDAAKNADFKGARLSLILTSDEEGEAIYGTKAVLEWMQERDMLPDYAVVAEPTCVKKIGDSIKIGRRGSINGKLLIRGKQGHVAYPEKCINPVHDFAPVLKLLAGFDLDPGSAEFSPSKIVITDIRGGMGVCNVTPNDLKLMFNVRNSPDTSLEDVKSYVEKICHGLNYELELKQSSEAFLTNIDNKIVQKMNESVQKITHEVPELNTKGGTSDARYFAKYGVKVVEFGVCNDRIHAIDERVSIEEFEKLCLVFKDLIENF
# notes: DapE of Campylobacter jejuni (ATCC 33291 genomic DNA), gene dapE (cj1048c), 365-residue protein, residues 1-365; in one crystal also captopril; The His6 tag was removed with thrombin; also called cjDapE; cjDapEZn; source: E. coli BL21 (DE3), purified (Ni-NTA, thrombin cleavage, Mono Q anion exchange); not shown: His6, N-terminal, cleaved
# Biological target: the molecule itself
# Test: SEC; 100 μg tag-free cjDapE on Superdex 200 10/300, 20 mM Tris pH 8.0, 150 mM NaCl, 5 mM β-mercaptoethanol; size by calibration with gel-filtration standards
protein,measurement,value
B1,stoichiometry N,2
